Experimental data as given in the nanobody polyreactivity screen of Harvey et al. (2022).

Experiment: yeast display, Sf9 membrane polyspecificity reagent, FACS + sequencing; frameworks hold sequencing errors
Summary of the method: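 Nanobodies came from a synthetic yeast display library in Saccharomyces cerevisiae BJ5465, induced with galactose for 36–48 hours and stained for 1 hour at 4 °C with 10% biotinylated, detergent-solubilized Sf9 membrane reagent. Cells were enriched on streptavidin microbeads and then FACS-sorted, with low and high (top ~1%) gates set on anti-HA fluorescence for expression and streptavidin fluorescence for reagent binding. Each polyreactivity label reflects the gate a clone came from. Genes were amplified by colony PCR, sequenced by MiSeq 2 × 250 and filtered by CDR length.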
In the case of “QVQLVESGGGLVQAGGSLRLSCAASGRIFYTNAMGWYRQAPGKERELVAGITGSGDSTYYADSVKGRFTISRDNAKNTVYLQMNSLKPEDTAVYYCAARWRYVLMDYWGQGTQVTVSS”, the “polyreactivity (PSR sort gate)” value is reported as “low polyreactivity”. In the case of “QVQLVESGGGIVQAGGSLRLSCAASGSTFEHNAMGWYRQAPGKEREFVAAITGSGGSTYYADSVKGRFTISRDNAKNTVYLQMTSLKPEDTAVYYCAADIQDGWYWWDIYDYWGQGTQVTVSS”, the “polyreactivity (PSR sort gate)” value is reported as “low polyreactivity”. With “QVQLVESGGGLVQAGGSLRLSCAASGIIFYVNAMGWYRQAPGKERELVAAITFGGDSTYYADSVKGRFTISRDNAKNTVYLQMNSLKPEDTAVYYCAADYVALYYWYDYWGQGTQVTVSS” the “polyreactivity (PSR sort gate)” value was “low polyreactivity”. For “QVQLVESGGGLVQAGGSLRLSCAASGRTFAINAMGWYRQATAKERELVADITTDGYTYYADSVKGRFTISRDNAKNTVYLQMNSLKPEDTAVYYCATDSLDYFIRFKQFGYWGQGTQVTVSS”, the “polyreactivity (PSR sort gate)” value was “low polyreactivity”. With “QVQLVESGGGLVQAGGSLSLSCDASGFTFRYYFMGWYRQAPGKERELVAAISYTGRTTYYADSVKGRFTISRDNAKNTVYLQMNSLKPEDTAVYYCASGAIGYNGKAYGMDYWGQGTEVTVSS” the “polyreactivity (PSR sort gate)” value was “high polyreactivity”. For “QVQLVESGGGLVQAGGSLRLSCAASGFIFSSYAMGWYRQAPGKERELVAVITRSGRRTYYADSVKGRFTISRDNAKNTVYLQMNSLKPEDTAVYYCNATLPNEVAPNDYWGQGTQVTVSS”, the “polyreactivity (PSR sort gate)” value was “high polyreactivity”. For “QVQLVESGGGLVQSGCSLRLSCAASGSTFYRYAMGWYRQAPGKERELVAAITSAGSTNYADSVKGRFTISRDNAKNTVYLLMNSLKPEDTAVYYCAADHGRPYFSYDYWGQGTQVTVSS”, the “polyreactivity (PSR sort gate)” value was “low polyreactivity”. For “QVQLVESGGGLVQAGGSLRLSCAASGFIFAPNVMGWYRQAPGKERELVAAINISGGSTSYADSVKGRFTISRDNAKNTVYLQMNSLKPEDTAVYYCAAEIPAYAYSYSYDYWGQGTQVTVSS”, the “polyreactivity (PSR sort gate)” value was “low polyreactivity”. In the case of “QVQLVESGGGLVQAGGSLRLSCAPSGRIVGKYVMGWDRQAPRKERELVAGICWSAGSTYYADSVKGRFTISRDNAKNTVYLQMNSLKPEDTAVYYCAAGLEGGSDYWGQGTQVTVSS”, the “polyreactivity (PSR sort gate)” value is reported as “low polyreactivity”. For “QVQLVESGGGLVQAGGSLRLSCAASGRTFYVYDMGWYRQAPRKEREFVATITARGGSTSYADSVKGRFTISRDNAKNTVYLQMNILKPEDTAVYYCNADIHVYPTRTRYYYWGQGTQVTVSS”, the “polyreactivity (PSR sort gate)” value was “low polyreactivity”. With “QVQLVESGGGLVQAGGSLRLSCAASGSIFRYNTMGWYRQAPGKERELVAAITSSGGRTYYADSVKGRFTISRDNAKNTVYLQMNSLKPEDTAVYYCAARRSFYGRVYDDQYDYWGQGTQVTVSS” the “polyreactivity (PSR sort gate)” value was “high polyreactivity”. For “QVQLVESGGGLVQAGGSLRLSCAASGRTFGYNVMGWYRQAPGKEMELVAGITSSGSTNYADSVKGRFTISRDNAKNTVYLQMNSLKPEDTAVYYCNADRLITWQLLYISSYRYDYWGQGTQVTVSS”, the “polyreactivity (PSR sort gate)” value was “high polyreactivity”. In the case of “QVQLVESGGGLVQAGGSLRLSCAASGSTFYPYTMGWYRQAPGKERELFAAITSGGNTNYADSVKGRFTISRDNAKNTVYLQMNSLKPEDTAVYYCNAEPEGTTGNYFPYDYWGQGTQVTVSS”, the “polyreactivity (PSR sort gate)” value is reported as “low polyreactivity”. With “KVQLVESGGGLVQAGGSLRLSCAASGRIFKYYAMGWYRQAPGKERELVAAISARGGSTYYADSVKGRFTISRDNAKNTVYLQMNSLKPEDTAVYYCAAPYLTTQYERMYYWGQGTQVTVSS” the “polyreactivity (PSR sort gate)” value was “high polyreactivity”. In the case of “QVQLVESGGGLVQAGGSLRLSCAASGSIFTENAMGWYRQAPGKERELVAAIRWDDGNTYYADSVKGRFTISRDNAKNTVYLQMNSLKTEDTAVYYCNADKWSSTDDWLYDYWGQGTQVTVSS”, the “polyreactivity (PSR sort gate)” value is reported as “low polyreactivity”. For “QDQLVESGGGLVQAGGSLRLSCAASGFTFVYNAMGWYRQAPGKERELVAAITSGGNTYYADSVKGRFTISRDNAKNTVYLQMNSLKPEDTAVYYCAADRFTVRMDYWGQGTQVTLSS”, the “polyreactivity (PSR sort gate)” value was “high polyreactivity”. With “QVQLVESGGGLVQAGGSLRLSCAASGRIFYNYAMGWSRQAPGKERELVAANSGSGGSTYYADSVKGRFTISRDSAMNTVYFQMNSLKPEDTAVYYCSTSGPQYYSRNFDYWGQGTQVTVSS” the “polyreactivity (PSR sort gate)” value was “low polyreactivity”. With “QVQLVESGGGLVQAGGSLRLSCAPSGFTFLGYDMGWYRQAPGKERELVAAIDYSGGSTYYADSVKGRFTISRDNAKNTVFLQMNSLKPEDTAVYDCAAEYQSGPYTWYEYWGQGTQVTVSS” the “polyreactivity (PSR sort gate)” value was “high polyreactivity”. For “QVQLVESGGGLVQAGGSLRLSCAASGFIFTTYAMGWYRQAPGKERELVAAISYRTGRTFYADSVKGRFTISRDNAKNTVYLQMNSLKPEDTAVYYCAAGTIQTVTTYWWTYRIGLGYWGQGTKVTVSS”, the “polyreactivity (PSR sort gate)” value was “high polyreactivity”. In the case of “QDQLVESGGGLVQAGCSLRLSCAASGLIFGWYAMGWYRQAPGKERELVASISRSGGSTYYADSVKGRFTISRDNAKNTVYLQMNSLITEDTAVYYCAALNYVFRLTYGYDYWGQGTQVTVSS”, the “polyreactivity (PSR sort gate)” value is reported as “high polyreactivity”. For “QVQHVESGGGLVQAGGSLRLSCAASGSTFRYYAMGWYRQAPGKERELVAAITSSGTSTYYADSVKGRFTISRDNAKNTVYLQMNSLKPEDTAVYSCAAPPVYKWVSSRYDYWGQGTQVTVSS”, the “polyreactivity (PSR sort gate)” value was “low polyreactivity”. With “QVQLVESGGGLVQAGGSLRLSCAASGSTSVQYAMGWYRQAPGKERELVAAIDRSGGSTSYADSVKGRFTISRDNAKHTVYLQMNSLKPEDTAVYYCNADVHNRGWPYDYWGQGTQVTVSS” the “polyreactivity (PSR sort gate)” value was “low polyreactivity”. For “QVQVESGGGLVQAGGSLRLSCGASGSIIDQYVMGWYRQAPGKERELVAAISRGGRTYYADSVKGRFTISRDNAKNTVYLQMNSLNPEDTAVYYCATGYGPYLGRPHLTLYYYWGQGTQVTVSS”, the “polyreactivity (PSR sort gate)” value was “low polyreactivity”. With “QVQLVESGGGLVQAGGSLRLSCAASGLTFSRYAMGWYRQAPGKERELVAAISRRGGITYYADSVKGRFTISRDNAKNTVYLQMNSLKPEDTAVYYCNKDYGGELDYWGQGTQVSVSS” the “polyreactivity (PSR sort gate)” value was “high polyreactivity”. In the case of “QVQLVESGGGLVQAGGSLRLSCAASGNTFGGYAMGWYRQAPGKERELVAAIRYSGTSTYYADSVKGRFTISRDNAKNTVYLQMNSLKPEDTAVYYCAATYTRVPNRFYYWGQGTQVTVSS”, the “polyreactivity (PSR sort gate)” value is reported as “high polyreactivity”. In the case of “QGQLEESGGGLVQAGCSLRRSCAASGNIFLIYAMGWSRQAPGKEGELVAAISFSDDTTDYADSVKGRFTSSRDNAKNTAYIQMNSLKPEDTAVYYCAAELYYDVANTQYDYWGQGTQVTVSS”, the “polyreactivity (PSR sort gate)” value is reported as “high polyreactivity”. With “QVQLVESGGGLVQAGGSLRLSCAASGSIFHNYDMGWYRQAPGKERELVADISRGGDTNYADSVKGRFTISRDNAKNTVYLQMNSLKPEDTAVYYCNATYWILDSPWWRETFDYWGQGTQVTVSS” the “polyreactivity (PSR sort gate)” value was “low polyreactivity”. In the case of “QVQLVESGGGLVQAGGSLRLSCAASGFTFRVYAMGWYRPAPGKERELVAAISVRGDSTYYADSVKGRFTISRDNAKNTVYLQMNSLKPEDTAVYYCNAALLGKQYYSNPNYDYWGQGTQVTVSS”, the “polyreactivity (PSR sort gate)” value is reported as “high polyreactivity”. With “QVQLVESGGGLVQAGGSLRLSCAASGSTFTRYVMGWYRQAPGKERELVAAISKRGGSTYYADSVKGRFTISRDNAKHTVYLQMNSLKPVDPAVYYCNRVSRAPFDYWGQGTQVTVSS” the “polyreactivity (PSR sort gate)” value was “high polyreactivity”. For “QVQLVESGGGLVQAGGSLRLSCAASGFTFFYVYTMGWYRQAPGKEREFVAAIDWTGRTYYADSVKGRFTISRDNAKNTVYLQMNSLKPEDTAVYYCNADVAPGIFYGYDSWGQGTQVTVSS”, the “polyreactivity (PSR sort gate)” value was “low polyreactivity”. With “QVQLVESGGGLVQAGGSLRLSCAASGFIFYSYTMGWYRQAPGKERELVATISSNGGRTYYADSVKGRFTISRDNAKNTVYLQMNSLKPEDTAVYYCATDVPHGYYWSYGDYYWGQGTQVTVSS” the “polyreactivity (PSR sort gate)” value was “low polyreactivity”.
